In the supplement of paper PMC6379048:

Columns and labels:
Assay in all cases: Kd (EC50 corrected by depletion factor)
AQR = biological target: T1, AQR (UniProt O60306)
T1 sequence: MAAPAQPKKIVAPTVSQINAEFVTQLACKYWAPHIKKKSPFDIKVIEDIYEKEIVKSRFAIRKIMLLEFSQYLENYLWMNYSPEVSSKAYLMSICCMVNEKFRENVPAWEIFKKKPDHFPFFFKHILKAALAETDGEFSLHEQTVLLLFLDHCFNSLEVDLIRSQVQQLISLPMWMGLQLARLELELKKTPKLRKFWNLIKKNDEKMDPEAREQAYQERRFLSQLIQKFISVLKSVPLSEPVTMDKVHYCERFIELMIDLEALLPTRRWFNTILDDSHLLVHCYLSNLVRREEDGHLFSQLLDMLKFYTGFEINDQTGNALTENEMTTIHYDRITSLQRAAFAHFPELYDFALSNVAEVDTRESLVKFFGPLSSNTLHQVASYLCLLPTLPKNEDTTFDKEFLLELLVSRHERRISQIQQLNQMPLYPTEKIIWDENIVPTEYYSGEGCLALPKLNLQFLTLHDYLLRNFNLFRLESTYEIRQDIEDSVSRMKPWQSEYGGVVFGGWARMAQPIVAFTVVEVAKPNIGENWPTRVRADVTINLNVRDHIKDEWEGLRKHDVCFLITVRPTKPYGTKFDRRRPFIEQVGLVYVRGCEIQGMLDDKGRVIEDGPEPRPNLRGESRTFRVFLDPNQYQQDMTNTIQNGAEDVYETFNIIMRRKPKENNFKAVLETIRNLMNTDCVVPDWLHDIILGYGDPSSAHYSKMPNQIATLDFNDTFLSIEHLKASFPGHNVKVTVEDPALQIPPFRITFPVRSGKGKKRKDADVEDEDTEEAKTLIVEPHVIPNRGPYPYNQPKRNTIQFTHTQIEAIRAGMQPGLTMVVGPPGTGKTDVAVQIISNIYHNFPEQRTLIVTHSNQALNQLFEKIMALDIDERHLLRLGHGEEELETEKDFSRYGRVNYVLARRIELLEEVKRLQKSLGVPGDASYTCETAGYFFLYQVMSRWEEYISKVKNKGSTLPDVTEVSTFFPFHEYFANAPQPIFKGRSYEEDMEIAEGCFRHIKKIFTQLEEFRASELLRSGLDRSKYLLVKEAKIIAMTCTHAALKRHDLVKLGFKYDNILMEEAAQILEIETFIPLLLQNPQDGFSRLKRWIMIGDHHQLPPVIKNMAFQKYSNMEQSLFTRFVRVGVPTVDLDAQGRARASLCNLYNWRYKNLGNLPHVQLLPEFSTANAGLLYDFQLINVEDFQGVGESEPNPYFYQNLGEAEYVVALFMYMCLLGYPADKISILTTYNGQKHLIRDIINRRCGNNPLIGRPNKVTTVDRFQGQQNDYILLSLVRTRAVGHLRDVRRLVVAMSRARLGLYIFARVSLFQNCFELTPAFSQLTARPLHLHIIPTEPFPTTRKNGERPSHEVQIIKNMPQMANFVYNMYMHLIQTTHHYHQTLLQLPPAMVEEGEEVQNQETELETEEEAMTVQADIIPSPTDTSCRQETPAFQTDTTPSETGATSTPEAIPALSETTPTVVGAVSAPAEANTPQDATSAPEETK
In short: (§1)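 Over three biological replicates and two independent experiments, proteins captured on NHS-Sepharose beads carrying 5′-amino-C6 RNA oligos were quantified by label-free LC-MS/MS and normalised to the control. Capture lasted 30 min at 4°C and followed a 1 h pre-incubation at 4°C of HEK293-FT lysate (2.5 mg protein/well) with the same oligos in free form (0 nM to 30 μM). EC50 was taken from a four-parameter log-logistic fit, and Kd was EC50 corrected by a protein-dependent depletion factor.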

CPSF2 = biological target: T2, CPSF2 (UniProt Q9P2I0)
T2 sequence: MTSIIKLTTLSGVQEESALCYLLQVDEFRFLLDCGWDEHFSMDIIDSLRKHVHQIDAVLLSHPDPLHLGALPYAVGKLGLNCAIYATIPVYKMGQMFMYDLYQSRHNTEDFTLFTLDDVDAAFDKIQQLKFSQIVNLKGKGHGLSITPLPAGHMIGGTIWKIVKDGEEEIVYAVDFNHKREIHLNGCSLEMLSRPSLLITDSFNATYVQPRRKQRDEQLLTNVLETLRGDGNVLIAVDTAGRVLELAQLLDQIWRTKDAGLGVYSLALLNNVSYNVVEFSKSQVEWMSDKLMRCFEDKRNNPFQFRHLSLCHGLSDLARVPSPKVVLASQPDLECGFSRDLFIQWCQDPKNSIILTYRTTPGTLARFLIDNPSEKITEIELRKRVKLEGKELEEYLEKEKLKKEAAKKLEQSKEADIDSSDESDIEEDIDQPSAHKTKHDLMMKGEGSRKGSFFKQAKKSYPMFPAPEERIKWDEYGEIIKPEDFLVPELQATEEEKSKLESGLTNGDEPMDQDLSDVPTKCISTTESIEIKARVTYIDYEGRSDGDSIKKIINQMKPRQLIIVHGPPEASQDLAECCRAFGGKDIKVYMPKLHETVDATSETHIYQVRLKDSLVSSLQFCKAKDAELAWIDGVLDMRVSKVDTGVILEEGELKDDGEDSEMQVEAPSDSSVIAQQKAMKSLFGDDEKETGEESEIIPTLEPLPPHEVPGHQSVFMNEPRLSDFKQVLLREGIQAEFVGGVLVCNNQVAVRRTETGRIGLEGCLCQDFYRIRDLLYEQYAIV
In short: as §1

LSM7 = biological target: T3, LSM7 (UniProt Q9UK45)
T3 sequence: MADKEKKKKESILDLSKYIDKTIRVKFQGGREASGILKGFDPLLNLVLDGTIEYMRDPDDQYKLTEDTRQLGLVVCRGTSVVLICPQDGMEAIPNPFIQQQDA
In short: as §1

NCL = NCL (UniProt P19338)
In short: as §1

NCL, sequence (P19338 whole entry): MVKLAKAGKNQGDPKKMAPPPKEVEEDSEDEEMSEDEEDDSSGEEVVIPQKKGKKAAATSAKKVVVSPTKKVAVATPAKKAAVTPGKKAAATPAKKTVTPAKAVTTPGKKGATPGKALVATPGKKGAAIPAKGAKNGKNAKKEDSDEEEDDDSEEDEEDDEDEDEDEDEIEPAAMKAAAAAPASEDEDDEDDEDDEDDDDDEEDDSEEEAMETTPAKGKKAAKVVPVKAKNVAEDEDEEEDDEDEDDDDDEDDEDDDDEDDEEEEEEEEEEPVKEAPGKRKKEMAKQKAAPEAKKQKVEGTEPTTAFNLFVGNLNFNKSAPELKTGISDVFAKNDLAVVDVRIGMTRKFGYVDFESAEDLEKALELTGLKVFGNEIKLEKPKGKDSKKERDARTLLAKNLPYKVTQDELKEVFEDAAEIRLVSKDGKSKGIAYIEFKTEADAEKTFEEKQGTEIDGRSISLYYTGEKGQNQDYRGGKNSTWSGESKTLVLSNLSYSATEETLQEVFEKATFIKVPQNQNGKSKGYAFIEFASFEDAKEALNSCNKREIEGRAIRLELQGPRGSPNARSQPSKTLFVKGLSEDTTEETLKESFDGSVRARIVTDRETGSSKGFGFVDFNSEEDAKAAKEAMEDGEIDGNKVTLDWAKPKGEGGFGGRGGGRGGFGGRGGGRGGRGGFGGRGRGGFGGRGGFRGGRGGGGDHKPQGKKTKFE

## AAUAAA
AQR
  Kd: 0.213 µM
CPSF2
  Kd: 0.00566 µM
LSM7
  Kd: 0.142 µM

## CUGUCCU
NCL
  Kd: 0.0868 µM

## UAUUUAU
AQR
  Kd: 0.32 µM
CPSF2
  Kd: 0.452 µM
LSM7
  Kd: 0.27 µM
NCL
  Kd: 1.77 µM
